According to patent publication EP2658867B1 (Avidbiotics Corp., dated 2018):
Changes are numbered by the printed parent chain.

B1: soluble MICA generated by pKK44 (extended loop 3.2sp in loop 1) (designed binder)
chain: HHHHHHEPHSLRYNLTVLSWDGSVQSGFLTEVHLDGQPFLRCDRQKCRAKPQGQWAEDVLGNKTWDRETRDLTGNGKDLRMTLAHIKDQKEGLHSLQEIRVCEIHEDNSTRSSQHFYYDGELFLSQNLETEEWTMPQSSRAQTLAMNVRNFLKEDAMKTKTHYHAMHADCLQELRRYLKSGVVLRRTVPPMVNVTSGGSGGGSTSRGDHPRTQSGGSGGGVTCRASGFYPWNITLSWRQDGVSLSHDTQQWGDVLPDGNGTYQTWVATRICQGEEQRFTCYMEHSGNHSTHPVPSGK
B2: soluble MICA generated by pKK45 (extended loop 3.3sp in loop 1) (designed binder)
chain: B1 chain with T204R, S205V, R206P, G207R, D208G, H209D, P210S, R211D, T212L, Q213T
B3: M13 phage pKK91 displaying MICA α3 domain with His10sp in loop 3 (designed binder, not shown: large carriers)
chain: TVPPMVNVTRSEASEGNITVTCRASGFYPWNITLSWRQDGVSLSHDTQQWGDVLPDGNGTYQTWVATRISGGSGGGSHHHHHHHHHHSGGSGGGCYMEHSGNHSTHPVPSGK
B4: soluble MICA generated by pKK37 (loop 3.2 in loop 1) (designed binder)
chain: HHHHHHEPHSLRYNLTVLSWDGSVQSGFLTEVHLDGQPFLRCDRQKCRAKPQGQWAEDVLGNKTWDRETRDLTGNGKDLRMTLAHIKDQKEGLHSLQEIRVCEIHEDNSTRSSQHFYYDGELFLSQNLETEEWTMPQSSRAQTLAMNVRNFLKEDAMKTKTHYHAMHADCLQELRRYLKSGVVLRRTVPPMVNVTRTSRGDHPRTQVTCRASGFYPWNITLSWRQDGVSLSHDTQQWGDVLPDGNGTYQTWVATRICQGEEQRFTCYMEHSGNHSTHPVPSGK
B5: M13 phage pKK97 displaying MICA α3 domain with loop 5.2 in loop 1 (designed binder, not shown: large carriers)
chain: TVPPMVNVTRGDTFTQSVTCRASGFYPWNITLSWRQDGVSLSHDTQQWGDVLPDGNGTYQTWVATRICQGEEQRFTCYMEHSGNHSTHPVPSGK
B6: M13 phage pKK92 displaying MICA α3 domain with loop 3.1 in loop 1 (designed binder, not shown: large carriers)
chain: TVPPMVNVTSRGDHPRTQVTCRASGFYPWNITLSWRQDGVSLSHDTQQWGDVLPDGNGTYQTWVATRICQGEEQRFTCYMEHSGNHSTHPVPSGK
B7: soluble MICA generated by pKK38 (loop 3.3 in loop 1) (designed binder)
chain: HHHHHHEPHSLRYNLTVLSWDGSVQSGFLTEVHLDGQPFLRCDRQKCRAKPQGQWAEDVLGNKTWDRETRDLTGNGKDLRMTLAHIKDQKEGLHSLQEIRVCEIHEDNSTRSSQHFYYDGELFLSQNLETEEWTMPQSSRAQTLAMNVRNFLKEDAMKTKTHYHAMHADCLQELRRYLKSGVVLRRTVPPMVNVTRVPRGDSDLTVTCRASGFYPWNITLSWRQDGVSLSHDTQQWGDVLPDGNGTYQTWVATRICQGEEQRFTCYMEHSGNHSTHPVPSGK
B8: soluble MICA generated by pKK42 (loop 5.3 in loop 1) (designed binder)
chain: B7 chain with R196H, V197L, P198A, S202D, D203L, L204T, T205Y
B9: soluble MICA generated by pKK39 (loop 3.4 in loop 1) (designed binder)
chain: B7 chain with V197S, P198A, L204H, T205R
B10: soluble MICA generated by pKK40 (loop 5.1 in loop 1) (designed binder)
chain: B7 chain with R196V, V197T, P198R, R199G, G200D, D201T, S202F, D203T, L204Q, T205S
B11: soluble MICA generated by pKK36 (loop 3.1 in loop 1) (designed binder)
chain: HHHHHHEPHSLRYNLTVLSWDGSVQSGFLTEVHLDGQPFLRCDRQKCRAKPQGQWAEDVLGNKTWDRETRDLTGNGKDLRMTLAHIKDQKEGLHSLQEIRVCEIHEDNSTRSSQHFYYDGELFLSQNLETEEWTMPQSSRAQTLAMNVRNFLKEDAMKTKTHYHAMHADCLQELRRYLKSGVVLRRTVPPMVNVTSRGDHPRTQVTCRASGFYPWNITLSWRQDGVSLSHDTQQWGDVLPDGNGTYQTWVATRICQGEEQRFTCYMEHSGNHSTHPVPSGK
B12: M13 phage pKK100 displaying MICA α3 domain with extended loop 3.2sp in loop 1 (designed binder, not shown: large carriers)
chain: TVPPMVNVTSGGSGGGSTSRGDHPRTQSGGSGGGVTCRASGFYPWNITLSWRQDGVSLSHDTQQWGDVLPDGNGTYQTWVATRICQGEEQRFTCYMEHSGNHSTHPVPSGK
B13: M13 phage pKK101 displaying MICA α3 domain with extended loop 3.3sp in loop 1 (designed binder, not shown: large carriers)
chain: B12 chain with T18R, S19V, R20P, G21R, D22G, H23D, P24S, R25D, T26L, Q27T
B14: M13 phage pKK102 displaying MICA α3 domain with extended loop 5.1sp in loop 1 (designed binder, not shown: large carriers)
chain: B12 chain with T18V, S19T, H23T, P24F, R25T, T26Q, Q27S
B15: soluble MICA generated by pKK35 (His10sp in loop 3) (designed binder)
chain: EPHSLRYNLTVLSWDGSVQSGFLTEVHLDGQPFLRCDRQKCRAKPQGQWAEDVLGNKTWDRETRDLTGNGKDLRMTLAHIKDQKEGLHSLQEIRVCEIHEDNSTRSSQHFYYDGELFLSQNLETKEWTMPQSSRAQTLAMNVRNFLKEDAMKTKTHYHAMHADCLQELRRYLKSGVVLRRTVPPMVNVTRSEASEGNITVTCRASGFYPWNITLSWRQDGVSLSHDTQQWGDVLPDGNGTYQTWVATRISGGSGGGSHHHHHHHHHHSGGSGGGCYMEHSGNHSTHPVPSGK
B16: soluble MICA generated by pKK50 (extended loop 5.1sp in loop 3) (designed binder)
chain: B15 chain with H258V, H259T, H260R, H261G, H262D, H263T, H264F, H265T, H266Q, H267S
B17: soluble MICA generated by pKK51 (extended loop 5.3sp in loop 3) (designed binder)
chain: B15 chain with H259L, H260A, H261R, H262G, H263D, H264D, H265L, H266T, H267Y
B18: soluble MICA generated by pKK49 (extended loop 3.3sp in loop 3) (designed binder)
chain: B15 chain with H258R, H259V, H260P, H261R, H262G, H263D, H264S, H265D, H266L, H267T
B19: soluble MICA generated by pKK48 (extended loop 3.2sp in loop 3) (designed binder)
chain: B15 chain with H258T, H259S, H260R, H261G, H262D, H264P, H265R, H266T, H267Q
B20: soluble MICA generated by pKK41 (loop 5.2 in loop 1) (designed binder)
chain: HHHHHHEPHSLRYNLTVLSWDGSVQSGFLTEVHLDGQPFLRCDRQKCRAKPQGQWAEDVLGNKTWDRETRDLTGNGKDLRMTLAHIKDQKEGLHSLQEIRVCEIHEDNSTRSSQHFYYDGELFLSQNLETEEWTMPQSSRAQTLAMNVRNFLKEDAMKTKTHYHAMHADCLQELRRYLKSGVVLRRTVPPMVNVTRGDTFTQSVTCRASGFYPWNITLSWRQDGVSLSHDTQQWGDVLPDGNGTYQTWVATRICQGEEQRFTCYMEHSGNHSTHPVPSGK
B21: M13 phage pKK93 displaying MICA α3 domain with loop 3.2 in loop 1 (designed binder, not shown: large carriers)
chain: TVPPMVNVTRTSRGDHPRTQVTCRASGFYPWNITLSWRQDGVSLSHDTQQWGDVLPDGNGTYQTWVATRICQGEEQRFTCYMEHSGNHSTHPVPSGK
B22: M13 phage pKK94 displaying MICA α3 domain with loop 3.3 in loop 1 (designed binder, not shown: large carriers)
chain: TVPPMVNVTRVPRGDSDLTVTCRASGFYPWNITLSWRQDGVSLSHDTQQWGDVLPDGNGTYQTWVATRICQGEEQRFTCYMEHSGNHSTHPVPSGK
B23: M13 phage pKK96 displaying MICA α3 domain with loop 5.1 in loop 1 (designed binder, not shown: large carriers)
chain: B22 chain with R10V, V11T, P12R, R13G, G14D, D15T, S16F, D17T, L18Q, T19S
B24: M13 phage pKK95 displaying MICA α3 domain with loop 3.4 in loop 1 (designed binder, not shown: large carriers)
chain: B22 chain with V11S, P12A, L18H, T19R
B25: M13 phage pKK98 displaying MICA α3 domain with loop 5.3 in loop 1 (designed binder, not shown: large carriers)
chain: B22 chain with R10H, V11L, P12A, S16D, D17L, L18T, T19Y

Legend:
integrin αVβ3 [1] = molecular target: T1, integrin αVβ3 (UniProt P06756 31-992; P05106 27-718); assay: ELISA, integrin coated, anti-MICA-HRP
T1 construct: Coated on the ELISA plate

integrin αVβ5 [2] = molecular target: T2, integrin αVβ5 (UniProt P06756 31-992; P18084 24-719); assay: ELISA, integrin coated, anti-MICA-HRP
T2 construct: Coated on the ELISA plate

integrin αVβ3 [3] = molecular target: T1, integrin αVβ3; assay: phage ELISA, integrin coated, anti-M13-HRP
integrin αVβ5 [4] = molecular target: T2, integrin αVβ5; assay: phage ELISA, integrin coated, anti-M13-HRP

T1 sequence (P06756 31-992, chain 1 of 2): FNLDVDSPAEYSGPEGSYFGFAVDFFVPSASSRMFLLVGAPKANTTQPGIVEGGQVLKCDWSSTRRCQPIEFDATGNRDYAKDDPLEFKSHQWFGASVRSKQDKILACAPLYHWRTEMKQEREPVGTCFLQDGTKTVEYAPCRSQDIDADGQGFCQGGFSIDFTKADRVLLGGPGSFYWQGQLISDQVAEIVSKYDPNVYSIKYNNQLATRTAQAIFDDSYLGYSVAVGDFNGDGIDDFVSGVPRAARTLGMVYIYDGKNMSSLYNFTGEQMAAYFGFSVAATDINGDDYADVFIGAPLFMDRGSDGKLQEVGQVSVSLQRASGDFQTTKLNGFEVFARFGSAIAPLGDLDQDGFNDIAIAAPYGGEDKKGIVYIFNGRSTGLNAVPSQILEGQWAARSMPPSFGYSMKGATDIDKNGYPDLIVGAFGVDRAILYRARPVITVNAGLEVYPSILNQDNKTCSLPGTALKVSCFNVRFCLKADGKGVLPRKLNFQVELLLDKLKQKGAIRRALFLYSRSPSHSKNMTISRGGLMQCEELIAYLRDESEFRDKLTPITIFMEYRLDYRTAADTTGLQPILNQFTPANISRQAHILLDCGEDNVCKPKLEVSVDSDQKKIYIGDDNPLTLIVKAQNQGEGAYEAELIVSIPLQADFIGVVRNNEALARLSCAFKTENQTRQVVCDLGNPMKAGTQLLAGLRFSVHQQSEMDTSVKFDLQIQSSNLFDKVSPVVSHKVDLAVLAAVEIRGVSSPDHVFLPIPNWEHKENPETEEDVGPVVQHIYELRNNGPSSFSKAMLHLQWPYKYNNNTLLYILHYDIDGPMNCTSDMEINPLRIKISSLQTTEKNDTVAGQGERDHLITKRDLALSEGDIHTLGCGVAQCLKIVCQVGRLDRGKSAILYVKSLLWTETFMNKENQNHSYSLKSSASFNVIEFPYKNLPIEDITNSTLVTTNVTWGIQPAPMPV
T1 sequence (P05106 27-718, chain 2 of 2): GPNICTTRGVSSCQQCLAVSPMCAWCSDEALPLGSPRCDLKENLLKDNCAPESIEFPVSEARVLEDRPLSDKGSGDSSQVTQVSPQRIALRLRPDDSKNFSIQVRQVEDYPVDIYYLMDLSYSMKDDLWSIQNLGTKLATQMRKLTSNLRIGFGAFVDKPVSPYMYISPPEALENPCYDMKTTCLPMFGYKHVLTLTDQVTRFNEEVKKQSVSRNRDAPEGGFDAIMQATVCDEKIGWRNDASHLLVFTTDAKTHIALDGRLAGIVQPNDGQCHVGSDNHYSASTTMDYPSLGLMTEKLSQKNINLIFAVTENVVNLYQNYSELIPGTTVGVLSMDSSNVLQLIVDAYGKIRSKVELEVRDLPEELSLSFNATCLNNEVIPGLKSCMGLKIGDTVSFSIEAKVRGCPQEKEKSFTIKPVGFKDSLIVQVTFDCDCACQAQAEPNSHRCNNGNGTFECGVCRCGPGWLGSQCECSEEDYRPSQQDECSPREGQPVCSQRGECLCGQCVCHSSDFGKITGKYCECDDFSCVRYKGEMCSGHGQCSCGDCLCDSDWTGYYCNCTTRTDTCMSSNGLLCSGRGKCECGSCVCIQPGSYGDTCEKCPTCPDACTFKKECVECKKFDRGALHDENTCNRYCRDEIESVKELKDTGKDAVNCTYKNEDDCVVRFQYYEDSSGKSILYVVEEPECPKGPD
T2 sequence (P06756 31-992, chain 1 of 2): as the sequence (P06756 31-992, chain 1 of 2) above
T2 sequence (P18084 24-719, chain 2 of 2): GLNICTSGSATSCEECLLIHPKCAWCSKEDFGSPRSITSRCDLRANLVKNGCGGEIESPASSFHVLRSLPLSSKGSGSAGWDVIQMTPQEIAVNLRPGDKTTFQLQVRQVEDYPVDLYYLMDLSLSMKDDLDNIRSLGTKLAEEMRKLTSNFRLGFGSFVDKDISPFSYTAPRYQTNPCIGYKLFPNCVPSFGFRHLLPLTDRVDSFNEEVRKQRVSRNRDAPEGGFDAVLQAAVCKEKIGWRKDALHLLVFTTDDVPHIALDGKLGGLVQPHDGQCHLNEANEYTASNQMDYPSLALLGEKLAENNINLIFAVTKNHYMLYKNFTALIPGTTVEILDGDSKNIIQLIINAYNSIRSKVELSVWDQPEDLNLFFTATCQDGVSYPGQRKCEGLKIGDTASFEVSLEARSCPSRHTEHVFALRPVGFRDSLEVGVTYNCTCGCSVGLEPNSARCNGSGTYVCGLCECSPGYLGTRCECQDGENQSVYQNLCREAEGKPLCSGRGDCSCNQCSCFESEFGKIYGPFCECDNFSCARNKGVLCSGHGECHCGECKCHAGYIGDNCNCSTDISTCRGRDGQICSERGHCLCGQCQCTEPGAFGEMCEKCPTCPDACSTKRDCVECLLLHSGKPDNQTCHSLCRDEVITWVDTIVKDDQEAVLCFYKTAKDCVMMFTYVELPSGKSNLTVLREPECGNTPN

Binder	signal (integrin αVβ3 [1]) [OD]	signal/ng (integrin αVβ3 [1]) [signal/ng]	signal (integrin αVβ5 [2]) [OD]	signal/ng (integrin αVβ5 [2]) [signal/ng]	signal (integrin αVβ3 [3]) [OD]	signal (integrin αVβ5 [4]) [OD]	signal (integrin αVβ3 [3]; record 2) [OD]	signal (integrin αVβ5 [4]; record 2) [OD]
B1	0.41	8.92	0.46	10	–	–	–	–
B2	0.393	9.51	0.41	9.92	–	–	–	–
B3	–	–	–	–	0.303	0.078	–	–
B4	0.777	22.4	0.779	22.4	–	–	–	–
B5	–	–	–	–	1.55	2.59	–	–
B6	–	–	–	–	0.858	1.32	–	–
B7	0.291	30.7	0.291	30.7	–	–	–	–
B8	0.526	21.2	0.565	22.8	–	–	–	–
B9	0.482	18	0.528	19.7	–	–	–	–
B10	0.485	19.5	0.675	27.1	–	–	–	–
B11	0.55	19	0.526	18.1	–	–	–	–
B12	–	–	–	–	0.201	0.186	–	–
B13	–	–	–	–	1.49	1.23	–	–
B14	–	–	–	–	1.02	0.771	1.45	1.5
B15	0.419	2.46	0.392	2.31	–	–	–	–
B16	0.546	5.85	0.721	7.73	–	–	–	–
B17	0.694	7.2	1.05	10.9	–	–	–	–
B18	0.508	5.86	0.478	5.51	–	–	–	–
B19	0.478	6.08	0.604	7.68	–	–	–	–
B20	0.516	17.7	0.65	22.4	–	–	–	–
B21	–	–	–	–	0.284	0.291	0.616	0.774
B22	–	–	–	–	1.07	2.84	–	–
B23	–	–	–	–	1.64	2.42	–	–
B24	–	–	–	–	0.345	0.232	–	–
B25	–	–	–	–	1.22	1.48	–	–
